Blank lines part the entries; values can stand above or below the binder they belong to.
What was measured:
[1] = biological target: human B7-H3 on B7-H3+ cells (human) (UniProt Q5ZPR3); test: FACS, SK-OV-3 cells (B7-H3+ tumor cells)
[2] = biological target: human B7-H3 on B7-H3+ cells (human) (UniProt Q5ZPR3); test: FACS, HepG2 cells (B7-H3+ tumor cells)
[3] = biological target: human B7-H3 on B7-H3+ cells (human) (UniProt Q5ZPR3); test: FACS, human dermal fibroblasts (B7-H3+ normal cells)
[4] = biological target: human B7-H3 on B7-H3+ cells (human) (UniProt Q5ZPR3); test: FACS, MCF-7 cells (B7-H3+ tumor cells)
[5] = biological target: human B7-H3 on B7-H3+ cells (human) (UniProt Q5ZPR3); test: FACS, HUVEC cells (human B7-H3-expressing)
[6] = biological target: human B7-H3 on B7-H3+ cells (human) (UniProt Q5ZPR3); test: FACS, human prostate smooth muscle cells (B7-H3+ normal cells)
[7] = biological target: human B7-H3 on B7-H3+ cells (human) (UniProt Q5ZPR3); test: FACS, NCI-H520 cells (B7-H3+ tumor cells)
[8] = biological target: human B7-H3 on B7-H3+ cells (human) (UniProt Q5ZPR3); test: FACS, A549 cells (B7-H3+ tumor cells)
[9] = biological target: human B7-H3 on B7-H3+ cells (human) (UniProt Q5ZPR3); test: FACS, NCI-H520 cells (B7-H3+ tumor cells) [Continued) C]
[10] = biological target: human B7-H3 on B7-H3+ cells (human) (UniProt Q5ZPR3); test: FACS, mature human dendritic cells derived from PBMC (B7-H3+ normal cells)
[11] = biological target: human B7-H3 on B7-H3+ cells (human) (UniProt Q5ZPR3); test: FACS, NCI-H520 cells (B7-H3+ tumor cells) [Continued) D]

Sequence of human B7-H3 on B7-H3+ cells (human) (Q5ZPR3 29-534): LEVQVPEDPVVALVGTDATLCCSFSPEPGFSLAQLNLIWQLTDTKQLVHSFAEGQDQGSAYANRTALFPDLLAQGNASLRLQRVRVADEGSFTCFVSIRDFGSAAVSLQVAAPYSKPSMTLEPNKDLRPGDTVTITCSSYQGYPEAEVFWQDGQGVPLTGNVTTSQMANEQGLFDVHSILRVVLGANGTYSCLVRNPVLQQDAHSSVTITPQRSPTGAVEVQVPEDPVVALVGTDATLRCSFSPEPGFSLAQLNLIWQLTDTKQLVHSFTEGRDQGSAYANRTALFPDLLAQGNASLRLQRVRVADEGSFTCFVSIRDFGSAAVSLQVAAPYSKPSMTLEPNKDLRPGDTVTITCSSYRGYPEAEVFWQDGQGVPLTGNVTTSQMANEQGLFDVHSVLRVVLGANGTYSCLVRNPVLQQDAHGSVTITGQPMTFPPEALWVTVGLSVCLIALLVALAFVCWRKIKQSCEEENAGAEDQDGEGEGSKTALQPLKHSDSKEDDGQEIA

B1: 6B5 (antibody, human IgG1, kappa, V domains shown)
VH: QVQLVESGPGLVKPSQTLSLTCTVSDGSISSGGYYWSWIRQHPGKGLEWIGYIYYSGGTYYSPSLKSRVTISVDTSKNQFSLKLTSVTAADTAVYYCARRAGYSSSFDSWGQGILVTVSS
VL: EIVLTQSPLSLPVTPGEPASISCRSSQSLLYSNGYTYLDWYLQKPGQSPQFLIYLGFNRASGVPDRFSGSGSGTDFTLKISRVEAEDVGVYYCMQGLQTPYTFGQGTKLEIKR
EC50 (read off the curve) [1]: 0.7 µg/mL | EC50 (read off the curve) [2]: 0.6 µg/mL | EC50 (read off the curve) [3]: 0.4 µg/mL | EC50 (read off the curve) [4]: 0.4 µg/mL | EC50 (read off the curve) [5]: 0.4 µg/mL | EC50 (read off the curve) [6]: 0.3 µg/mL | EC50 (read off the curve) [7]: 0.3 µg/mL | EC50 (read off the curve) [8]: 2 µg/mL | EC50 (read off the curve) [9]: 0.1 µg/mL | EC50 (read off the curve) [10]: 1 µg/mL

B2: 10D7-Mut (antibody, human IgG1, kappa)
heavy: QVQLVQSGPGLVKPSETLSLTCTVSGGSISRSSYYWGWIRQPPGKGLEWIGNIFYAGSTYYNPSLKSRVTISVDTSKNQFSLKLSSVTAADTAVYYCARRITGTTGWFDPWGQGTLVTVSSASTKGPSVFPLAPSSKSTSGGTAALGCLVKDYFPEPVTVSWNSGALTSGVHTFPAVLQSSGLYSLSSVVTVPSSSLGTQTYICNVNHKPSNTKVDKRVEPKSCDKTHTCPPCPAPELVGGPSVFLLPPKPKDTLMISRTPEVTCVVVDVSHEDPEVKFNWYVDGVEVHNAKTKPPEEQYNSTLRVVSVLTVLHQDWLNGKEYKCKVSNKALPAPIEKTISKAKGQPREPQVYTLPPSREEMTKNQVSLTCLVKGFYPSDIAVEWESNGQPENNYKTTPLVLDSDGSFFLYSKLTVDKSRWQQGNVFSCSVMHEALHNHYTQKSLSLSPGK
light: DIQLTQSPSSLSASVGDRVTITCRASQGIRNDLGWYQQKPGKAPKLLIYAASTLQSGVPSRFSGSGSGTDFTLTISSLQPEDFATYYCLQDYNYPRTFGQGTKVEIKRTVAAPSVFIFPPSDEQLKSGTASVVCLLNNFYPREAKVQWKVDNALQSGNSQESVTEQDSKDSTYSLSSTLTLSKADYEKHKVYACEVTHQGLSSPVTKSFNRGEC
EC50 (read off the curve) [5]: 0.05 µg/mL | EC50 (read off the curve) [11]: 0.03 µg/mL

B3: 6B5-Mut (antibody, human IgG1, kappa)
heavy: QVQLVESGPGLVKPSQTLSLTCTVSDGSISSGGYYWSWIRQHPGKGLEWIGYIYYSGGTYYSPSLKSRVTISVDTSKNQFSLKLTSVTAADTAVYYCARRAGYSSSFDSWGQGILVTVSSASTKGPSVFPLAPSSKSTSGGTAALGCLVKDYFPEPVTVSWNSGALTSGVHTFPAVLQSSGLYSLSSVVTVPSSSLGTQTYICNVNHKPSNTKVDKRVEPKSCDKTHTCPPCPAPELVGGPSVFLLPPKPKDTLMISRTPEVTCVVVDVSHEDPEVKFNWYVDGVEVHNAKTKPPEEQYNSTLRVVSVLTVLHQDWLNGKEYKCKVSNKALPAPIEKTISKAKGQPREPQVYTLPPSREEMTKNQVSLTCLVKGFYPSDIAVEWESNGQPENNYKTTPLVLDSDGSFFLYSKLTVDKSRWQQGNVFSCSVMHEALHNHYTQKSLSLSPGK
light: EIVLTQSPLSLPVTPGEPASISCRSSQSLLYSNGYTYLDWYLQKPGQSPQFLIYLGFNRASGVPDRFSGSGSGTDFTLKISRVEAEDVGVYYCMQGLQTPYTFGQGTKLEIKRTVAAPSVFIFPPSDEQLKSGTASVVCLLNNFYPREAKVQWKVDNALQSGNSQESVTEQDSKDSTYSLSSTLTLSKADYEKHKVYACEVTHQGLSSPVTKSFNRGEC
EC50 (read off the curve) [5]: 0.4 µg/mL | EC50 (read off the curve) [9]: 0.2 µg/mL

The next lines start with the values.

EC50 (read off the curve) [3]: 0.2 µg/mL | EC50 (read off the curve) [6]: 0.1 µg/mL | EC50 (read off the curve) [7]: 0.3 µg/mL | EC50 (read off the curve) [10]: 0.3 µg/mL
B4: Enoblituzumab (antibody, human IgG1, kappa, V domains shown)
VH: EVQLVESGGGLVQPGGSLRLSCAASGFTFSSFGMHWVRQAPGKGLEWVAYISSDSSAIYYADTVKGRFTISRDNAKNSLYLQMNSLRDEDTAVYYCGRGRENIYYGSRLDYWGQGTTVTVSS
VL: DIQLTQSPSFLSASVGDRVTITCKASQNVDTNVAWYQQKPGKAPKALIYSASYRYSGVPSRFSGSGSGTDFTLTISSLQPEDFATYYCQQYNNYPFTFGQGTKLEIKR

EC50 (read off the curve) [1]: 0.7 µg/mL | EC50 (read off the curve) [2]: 0.4 µg/mL | EC50 (read off the curve) [5]: 0.05 µg/mL | EC50 (read off the curve) [7]: 0.3 µg/mL | EC50 (read off the curve) [10]: 0.06 µg/mL | EC50 (read off the curve) [11]: 0.03 µg/mL
B5: 10D7 (antibody, human IgG1, kappa, V domains shown)
VH: QVQLVQSGPGLVKPSETLSLTCTVSGGSISRSSYYWGWIRQPPGKGLEWIGNIFYAGSTYYNPSLKSRVTISVDTSKNQFSLKLSSVTAADTAVYYCARRITGTTGWFDPWGQGTLVTVSS
VL: DIQLTQSPSSLSASVGDRVTITCRASQGIRNDLGWYQQKPGKAPKLLIYAASTLQSGVPSRFSGSGSGTDFTLTISSLQPEDFATYYCLQDYNYPRTFGQGTKVEIKR

Source: patent US20260125477A1
